Assay results published in the supplement of paper PMC10126150.
± gives the standard deviation of the averaged measurements.
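Further: ATP exposure 15 min at 22 °C before imaging.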

What follows are sequences tested on ATP (assay: switch fluorescence ratio, 500 uM ATP over buffer (Cy3 cluster intensity, sum of 5 cycles each) (fold (ratio)); higher = stronger signal-on switching upon ATP binding; sequences stand for … in TCGTCGGCAGCGTCAGATGTGTATAAGAGACAGTTTTTTTTTTTTTTTTTTTTTTTTT…TC). Conditions: aptamer strand: ATP DNA aptamer (quencher-CACCTGGGGGAGTATTGCGGAGGAAGG + anchor), 100 nM annealed; ATP concentration: 500 uM.
Summary of the method: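 Switching-strand clusters labelled with Cy3 on a modified Illumina MiSeq flow-cell were annealed to 100 nM quencher-labelled ATP aptamer, imaged in selection buffer, and re-imaged after 15 min with 500 uM ATP at 22 °C. This was done over five cycles with NaOH stripping and re-annealing in between. The fluorescence ratio is summed target-cycle over summed buffer-cycle Cy3 intensity per cluster, averaged per switch-domain sequence, excluding clusters outside 100-1000 RFU.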
CTGTTGCCTG showed a switch fluorescence ratio of 0.974 ± 0.041. With CTGTTGGGTC the switch fluorescence ratio was 0.97927 ± 0.00013. CTGTTTAGGG was tested, and the switch fluorescence ratio was 1.01 ± 0.018. CTGTTTGTTG gave a switch fluorescence ratio of 0.9707 ± 0.0013. CTTAAAAATT showed a switch fluorescence ratio of 0.9777 ± 0.0031. In the case of CTTAACGGCG, the switch fluorescence ratio is reported as 0.968 ± 0.044. CTTAATCTC gave a switch fluorescence ratio of 0.968 ± 0.02. For CTTACAGCTA, the switch fluorescence ratio was 1.097 ± 0.0016. Work on CTTACGGGGT yielded a switch fluorescence ratio of 1.1 ± 0.093. Sequence CTTACGGGTC has a switch fluorescence ratio of 0.9901 ± 0.005. For CTTACTAGC, the switch fluorescence ratio was 1.02 ± 0.029. CTTAGACCCC showed a switch fluorescence ratio of 1.01 ± 0.02. CTTAGAGCGG showed a switch fluorescence ratio of 1.01 ± 0.022. Sequence CTTAGATAAA has a switch fluorescence ratio of 0.985 ± 0.026. CTTAGATGGA was tested, and the switch fluorescence ratio was 0.978 ± 0.023. For CTTAGCCGGG, the switch fluorescence ratio was 0.981 ± 0.032. Sequence CTTAGCTAGT has a switch fluorescence ratio of 1.09 ± 0.13. In the case of CTTAGGATAG, the switch fluorescence ratio is reported as 0.996 ± 0.0029. CTTAGGCCAG showed a switch fluorescence ratio of 0.998 ± 0.032. In the case of CTTAGGGAGT, the switch fluorescence ratio is reported as 1.006 ± 0.0028. CTTAGGGCTC gave a switch fluorescence ratio of 1.026 ± 0.0042. CTTAGGGGTG gave a switch fluorescence ratio of 0.973 ± 0.011. With CTTAGGGTT the switch fluorescence ratio was 0.997 ± 0.044. CTTAGTAGTT gave a switch fluorescence ratio of 1.01 ± 0.015. CTTAGTGGCG was tested, and the switch fluorescence ratio was 0.9757 ± 0.0038. CTTAGTTAGC gave a switch fluorescence ratio of 1.02 ± 0.013. CTTATAACAG showed a switch fluorescence ratio of 1.01 ± 0.018. Sequence CTTATAGCGC has a switch fluorescence ratio of 1.007 ± 0.0066. With CTTATCTGGG the switch fluorescence ratio was 0.999 ± 0.041. CTTATGAGGG gave a switch fluorescence ratio of 0.99 ± 0.025. CTTATGGGGG was tested, and the switch fluorescence ratio was 1.03 ± 0.046. In the case of CTTATTCGAT, the switch fluorescence ratio is reported as 0.999 ± 0.012. Work on CTTATTGTTT yielded a switch fluorescence ratio of 0.995 ± 0.069. Sequence CTTATTTGGT has a switch fluorescence ratio of 0.992 ± 0.035. CTTCAAAAGG showed a switch fluorescence ratio of 1.68 ± 0.96. With CTTCAGTTAC the switch fluorescence ratio was 1.82 ± 0.19. In the case of CTTCATCTTT, the switch fluorescence ratio is reported as 0.996 ± 0.018. CTTCCCGCCG gave a switch fluorescence ratio of 1.26 ± 0.057. With CTTCCGGGGT the switch fluorescence ratio was 1.68 ± 0.1. CTTCCGTTTT gave a switch fluorescence ratio of 1.28 ± 0.042. CTTCGAAGTT was tested, and the switch fluorescence ratio was 0.98 ± 0.045. In the case of CTTCGGGCGA, the switch fluorescence ratio is reported as 1.1 ± 0.023. Sequence CTTCGGGGGA has a switch fluorescence ratio of 0.992 ± 0.01. For CTTCGGTAAC, the switch fluorescence ratio was 2.175 ± 0.0072. CTTCTACCTG gave a switch fluorescence ratio of 1.01 ± 0.035. With CTTCTCTTCA the switch fluorescence ratio was 1.02 ± 0.03. CTTCTGGAGG showed a switch fluorescence ratio of 1.15 ± 0.028. CTTCTGGGCG showed a switch fluorescence ratio of 1.02 ± 0.032. With CTTGACAGA the switch fluorescence ratio was 1.03 ± 0.024. CTTGACGGTC gave a switch fluorescence ratio of 1.11 ± 0.1. Work on CTTGACGGTT yielded a switch fluorescence ratio of 1.01 ± 0.092. For CTTGAGATGT, the switch fluorescence ratio was 1.02 ± 0.044. CTTGAGTTAG gave a switch fluorescence ratio of 1.015 ± 0.0066. CTTGATACAG gave a switch fluorescence ratio of 1.037 ± 0.0026. In the case of CTTGATGTTG, the switch fluorescence ratio is reported as 1.01 ± 0.012. CTTGATTTGT gave a switch fluorescence ratio of 1.01 ± 0.036. CTTGGAGGGG showed a switch fluorescence ratio of 1.0187 ± 0.00015. Work on CTTGGAGTTG yielded a switch fluorescence ratio of 1.02 ± 0.07. Work on CTTGGCATCT yielded a switch fluorescence ratio of 1.01 ± 0.033. Work on CTTGGCCGCG yielded a switch fluorescence ratio of 0.987 ± 0.011. Sequence CTTGGGGAAT has a switch fluorescence ratio of 1.13 ± 0.24. For CTTGGGGCGC, the switch fluorescence ratio was 1.01 ± 0.049. For CTTGGGGCGG, the switch fluorescence ratio was 0.962 ± 0.017. Sequence CTTGGGTGAA has a switch fluorescence ratio of 1.09 ± 0.19. In the case of CTTGGGTTCT, the switch fluorescence ratio is reported as 1 ± 0.012. In the case of CTTGTAATGT, the switch fluorescence ratio is reported as 1.02 ± 0.011. CTTGTCTTAA gave a switch fluorescence ratio of 1.02 ± 0.029. For CTTGTGCTTG, the switch fluorescence ratio was 1.0058 ± 0.00065. CTTGTGGTGG gave a switch fluorescence ratio of 1.006 ± 0.0089. With CTTGTTGAGG the switch fluorescence ratio was 0.988 ± 0.012. In the case of CTTGTTGTTT, the switch fluorescence ratio is reported as 1.03 ± 0.15. In the case of CTTGTTTCTC, the switch fluorescence ratio is reported as 0.971 ± 0.028. For CTTTACTCAC, the switch fluorescence ratio was 1.27 ± 0.019. Sequence CTTTAGAATC has a switch fluorescence ratio of 0.941 ± 0.021. CTTTAGATGT showed a switch fluorescence ratio of 0.98 ± 0.034. For CTTTAGTCAG, the switch fluorescence ratio was 1.01 ± 0.016. CTTTATATGG showed a switch fluorescence ratio of 0.96 ± 0.046. CTTTATGGGA showed a switch fluorescence ratio of 0.988 ± 0.031. With CTTTCGAGAG the switch fluorescence ratio was 1 ± 0.025. CTTTCGGGGG showed a switch fluorescence ratio of 1.14 ± 0.2. CTTTGACGGG gave a switch fluorescence ratio of 0.989 ± 0.013. CTTTGATTAG showed a switch fluorescence ratio of 0.9838 ± 0.0061. In the case of CTTTGCTTTT, the switch fluorescence ratio is reported as 0.968 ± 0.023. CTTTGGAAAT showed a switch fluorescence ratio of 0.9997 ± 0.0023. CTTTGGAGTG was tested, and the switch fluorescence ratio was 1.23 ± 0.38. CTTTTAGTAG was tested, and the switch fluorescence ratio was 0.974 ± 0.015. Sequence CTTTTATAGT has a switch fluorescence ratio of 0.984 ± 0.02. Sequence CTTTTTAACA has a switch fluorescence ratio of 0.9742 ± 0.0062. CTTTTTGGGG was tested, and the switch fluorescence ratio was 0.981 ± 0.029. GAAAAAAGTA gave a switch fluorescence ratio of 1.01 ± 0.031. With GAAAAAAGTG the switch fluorescence ratio was 0.994 ± 0.047. For GAAAAAATTT, the switch fluorescence ratio was 1.031 ± 0.0019. GAAAAAGAGA showed a switch fluorescence ratio of 0.9736 ± 0.0016. GAAAAAGCGT was tested, and the switch fluorescence ratio was 1.07 ± 0.03. GAAAAATTAC gave a switch fluorescence ratio of 1.49 ± 0.75. Sequence GAAAAGGGTT has a switch fluorescence ratio of 0.978 ± 0.032. Sequence GAAAAGTTTT has a switch fluorescence ratio of 0.969 ± 0.018. For GAAAATAACG, the switch fluorescence ratio was 1.11 ± 0.15. With GAAAATTGGT the switch fluorescence ratio was 0.997 ± 0.023. With GAAACTGCTG the switch fluorescence ratio was 1.01 ± 0.029.
